We go through five molecules from patent publication US20220396632A1 (VERSEAU THERAPEUTICS, published 2022).

Assay [1] addresses T1, Biotin Y46,48,51(SO3) PSGL-1(42-62) peptide (human, sulfotyrosine at Y46, Y48 and Y51; C-terminal Lys-biotin).
T1 construct: also called fully sulfated N-terminal PSGL-1 peptide
T1 peptide: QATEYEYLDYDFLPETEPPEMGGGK
As to the kind of experiment: ELISA, plate-bound target. How it is done: (§1) Two ELISA methods were performed. One procedure detected mAb binding to its plate-immobilized target and the other measured the immobilized antibody's ability to capture biotinylated PSGL-1₄₂₋₆₂. […] The plate was incubated for 45 min at 37° C. Plates were washed 3 times with wash buffer (PBS containing 0.05% tween 20, pH 7.4) and a single concentration (2 to 500 nM) or serially diluted (0.002-100 nM) anti-PSGL-1 mAb was added (25 ul/well) in assay buffer into appropriate wells. The plate was incubated for 45 min at 37° C., washed 3 times, and an appropriate HRP-conjugated secondary antibody added (25 ul/well) (HRP goat anti-mouse or anti-human IgG). After 45 min incubation at 37° C., the plate was washed, and antibody bound to plate-immobilized target was determined at A450 nm using HRP substrate (3,3′,5,5′-etramethylbenzidine (TMB)). For each antibody, duplicate values were averaged and assay background was subtracted. Except for the following, ELISAs involving plate-immobilized mAb capturing of biotinylated PSGL-1₄₂₋₆₂ peptides was performed in the same manner as described above: 3 ug/mL/25 ul per well of mAb was coated directly onto microtiter plate wells; biotinylated unmodified or sulfotyrosine PSGL-1₄₂₋₆₂ was serially diluted (3 nM-3 uM) into appropriate wells, and antibody-bound peptide was detected using HRP-streptavidin (Jackson Immunoresearch, Cat. #016-030-084).

Assay [2] deals with T2, Recombinant human PSGL-1(ECD)-hFc1 (R&D Systems, Cat. 3345-PS) (human, UniProt Q14242 42-305).
T2 construct: Bought; Gln42-Val295 counted on AAC50061; also called PSGL-1-Fc; PSGL-1-hFc1 chimera; not shown: human IgG1 Fc, Pro100-Lys330
T2 sequence: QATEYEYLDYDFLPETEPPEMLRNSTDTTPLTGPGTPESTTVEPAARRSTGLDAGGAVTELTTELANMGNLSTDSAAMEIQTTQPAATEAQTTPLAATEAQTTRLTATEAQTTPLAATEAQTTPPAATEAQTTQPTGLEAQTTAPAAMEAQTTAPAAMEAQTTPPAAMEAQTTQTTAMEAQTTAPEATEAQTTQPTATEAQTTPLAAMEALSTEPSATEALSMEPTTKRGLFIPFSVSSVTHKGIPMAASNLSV
As to the kind of experiment: ELISA, plate-bound target. Here is the method:
as §1
(In an ELISA, binding on a coated surface is turned into a signal by an enzyme label.)

In assay [3] the target is T1, Biotin Y46,48,51(SO3) PSGL-1(42-62) …. As to the kind of experiment: ELISA, plate-bound mAb captures biotin peptide. How it is done: as §1
The target of assay [4] is T3, Biotin sY48 PSGL-1(42-62) peptide (human, sulfotyrosine at Y48; C-terminal Lys-biotin).
T3 construct: also called sY48S
T3 peptide: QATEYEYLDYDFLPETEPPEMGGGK
As to the kind of experiment: ELISA, plate-bound mAb captures biotin peptide. Here is the method:
as §1

Assay [5] addresses T4, Biotin sY51 PSGL-1(42-62) peptide (human, sulfotyrosine at Y51; C-terminal Lys-biotin).
T4 construct: also called Y51(SO3) PSGL-1(42-62)
T4 peptide: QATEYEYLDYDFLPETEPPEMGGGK
As to the kind of experiment: ELISA, plate-bound mAb captures biotin peptide. How it is done: as §1

Assay [6] concerns the target T1, Biotin Y46,48,51(SO3) PSGL-1(42-62) …. As to the kind of experiment: capture ELISA; against 3 x sY peptide. Here is the method:
as §1

Assay [7] concerns the target T3, Biotin sY48 PSGL-1(42-62) peptide. As to the kind of experiment: capture ELISA; against 3 x sY peptide. How it is done: as §1
The target of assay [8] is T4, Biotin sY51 PSGL-1(42-62) peptide. As to the kind of experiment: capture ELISA; against 3 x sY peptide. How it is done:
as §1

The target in assay [9] is T5, Biotin sY46 PSGL-1(42-62) peptide (human, sulfotyrosine at Y46; C-terminal Lys-biotin).
T5 peptide: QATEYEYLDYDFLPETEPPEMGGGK
Briefly: ELISA, plate-bound mAb captures biotin peptide. How it is done:
as §1

For assay [10], the target named is T1, Biotin Y46,48,51(SO3) PSGL-1(42-62) …. Briefly: ELISA, plate-bound mAb captures biotin 3 x sY peptide. How it is done:
(§2) A typical ELISA for N-terminal PSGL-1 reactive humanized mAbs binding to Y_{46,48,51}(SO₃) PSGL-1₍₄₂₋₆₂₎ involved coating high binding half-well plates (Corning Cat. #3690) with 3 ug/mL/25 ul per well of the mAbs or with an isotype hG4 control in PBS, pH 7.4, overnight at 4° C. […] Biotinylated Y_{46,48,51}(SO₃) PSGL-1₍₄₂₋₆₂₎ was added (25 ul per well) in duplicate at 2.8 uM in assay buffer (blocking buffer containing 0.05% tween 20) and serially diluted into test and control (just blocked) wells, and the plate incubated for 45 min at 37° C. The plate was washed ×3 and an appropriate HRP-conjugated streptavidin was added (25 ul per well; Jackson Immunoresearch, Cat. #016-030-084) and the plate was incubated for 45 min at 37° C. […] For each antibody, an EC50 value was determined from sigmoidal fitted peptide titration curve.

Assay [11] shares this target. Briefly: capture ELISA; against parent 18F02. Here is the method:
as §2

The target of assay [12] is T6, Cynomolgus PSGL-1(ECD)-HIS (cynomolgus macaque).
T6 construct: also called Cyno PSGL1-His
T6 chain: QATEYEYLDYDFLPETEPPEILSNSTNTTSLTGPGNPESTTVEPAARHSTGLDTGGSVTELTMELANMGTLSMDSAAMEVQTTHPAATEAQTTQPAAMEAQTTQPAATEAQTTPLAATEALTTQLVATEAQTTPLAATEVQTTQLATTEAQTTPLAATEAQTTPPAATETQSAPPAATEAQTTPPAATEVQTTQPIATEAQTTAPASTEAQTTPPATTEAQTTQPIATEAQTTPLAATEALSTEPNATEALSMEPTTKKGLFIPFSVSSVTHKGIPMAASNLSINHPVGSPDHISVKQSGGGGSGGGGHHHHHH
As to the kind of experiment: ELISA, plate cyno PSGL-1(ECD)-HIS. Here is the method: Antibody binding to plate-immobilized cyno PSGL-1(ECD) was determined either at one concentration (20 nM) or by generating full antibody binding curves (0.003-200 nM). A typical ELISA was performed by overnight coating at 4° C. with 3 ug/mL/25 ul per well of recombinant cyno PSGL-1(ECD) protein in PBS, pH 7.4, in high binding half-well plates (Corning Cat. #3690). […] Anti-PSGL-1 IgG in assay buffer (blocking buffer containing 0.05% tween 20) was added into test and control wells (20 nM/25 ul/well) and the plate incubated for 45 min at 37° C. […] The plate was incubated for 45 min at 37° C., and mAb bound to plate-immobilized target determined at A450 nm using HRP substrate (3,3′,5,5′-tetramethylbenzidine (TMB)). For each antibody, duplicate values were averaged and assay background subtracted.

Assay [13] deals with T7, PSGL-1(42-62) N-terminal peptide, sulfation state not told at the place (human, not fully specified; sulfation of Y46, Y48, Y51 not stated for these table columns).
T7 peptide: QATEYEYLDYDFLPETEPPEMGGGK
Briefly: mAb binding to PSGL-1(42-62).

Usually EC50 stands for the concentration needed to bring the measured effect to its halfway point.

Changes are numbered by the printed parent chain.

B1: PSG3 (antibody, V domains shown)
VH: QVQLVQSGAEVKKPGSSVRVSCKASGGSFSSYGIHWVQQAPGQGLEWMGRIIPVLRIRNYAQKFHDRVTIDADTSTGTAYMELSSLTSDDTAVYYCAGSRQGVAPTGYWGQGTMVTVSS
VL: QAVLTQPSSLSASPGASASLTCNLRSGIDVGTYRIYWYQQKPGSPPQYLLRYKSDSDKQQGSGVPSRFSGTKDASANAGILLISGLQSEDEADYYCMIWHSNGWVFGGGTKLTVL
notes: Control anti-PSGL-1 mAb; only variable domains given
On to B1, for which the EC50 is 0.44 nM in assay [1]; roughly 0.1 nM in assay [2]; 93 nM in assay [3]; roughly 600 nM in assay [4]; roughly 600 nM in assay [5]. For the same molecule, the figures for the “EC50/EC50 3x(SO3)Y” value in assay [6], in assay [7] and in assay [8] were 1 fold, roughly 6 fold and roughly 6 fold, respectively.

B2: SELK1 (antibody, V domains shown)
VH: QVQLQQSGPGLVKPSQTLSLTCAISGDSVSSNIAAWHWIRLSPSRGLEWLGRTYYRRSKWNYDYALSVKSRININPDTSKNLFSLQLNSVTPEDTAVYYCTRGGGRAHSAWGQGTLVTVSS
VL: EIVLTQSPGTLSVSPGERATLSCRASQSVSRSHLAWYQQKPGQAPRLLIFGASSRATGIPDRFSGSGSGTDFTLTISRLEPEDFAVYYCQQYGRPGVTFGQGTKVEIK
notes: as for B1
Consider B2, for which the concentration giving a half-maximal response (EC50) in assay [1] is 0.07 nM; in [2] it was 0.02 nM; in assay [3], 6.2 nM; in assay [4] it was 8.34 nM; in assay [9] it was 167 nM; in assay [5], 129 nM.

B3: 18F02.001 (antibody, IgG4, V domains shown)
VH: QVQLVQSGAEVKKPGSSVKVSCKASGYTFTSYWMHWVRQAPGQGLEWMGMIHPNSGRTNYNEKFKSRVTITVDKSTSTAYMELSSLRSEDTAVYYCARSDYWGQGTLVTVSS
VL: DIVMTQTPLSLSVTPGQPASISCRSSKSLLHSDGITYLYWFLQKPGQSPQLLIYRMSNLASGVPDRFSGSGSGTDFTLKISRVEAEDVGVYYCAQMLEFPRTFGQGTKLEIK
notes: Humanised
In assay [10], B3 yielded a concentration for a half-maximal effect (EC50) of 160 nM. The “N-term peptide EC50 (normalized)” value in [11] worked out at 2.3 fold.

B4: 18F02.002 (antibody, IgG4, V domains shown)
VH: B3 VH with Q1E
VL: B3 VL
notes: Humanised
With B4, in assay [10], the midpoint of the response, the EC50, lay at 150 nM. Moreover, the “N-term peptide EC50 (normalized)” value in assay [11] was 2.1 fold.

B5: 20H10 (antibody, V domains shown)
VH: QVQLQQPGTELVKPGASVKLSCKASGYTFTNFWMHWVRQRPGQGLEWIGKINPGNGGTRYNEKFKTKATLTVDRSSSTACIQLSSLTSEDSAVYYCTSTNWDPYFDYWGQGTTLTVSS
VL: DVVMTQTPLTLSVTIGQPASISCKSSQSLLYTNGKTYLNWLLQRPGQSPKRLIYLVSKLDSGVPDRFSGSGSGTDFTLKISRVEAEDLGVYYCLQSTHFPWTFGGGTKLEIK
notes: Mouse hybridoma mAb; only variable domains given
As for B5, the binding result in assay [12] and in assay [13] was “no binding” each time.
